Results as given in the DeepSol protein solubility set.

Test: soluble on expression in E. coli; label from the status in PepcDB or PDB records

Row | Sequence | soluble on expression in E. coli
1 | GSSGSSGMCGRFAQSQTREDYLALLAEDIERDIPYDPEPIGRYNVAPGTKVLLLSERDEHLHLDPVFWGYAPGWWDKPPLINARVETAATSRMFKPLWQHGRAICFADGWFEWKKEGDKKQPFFIYRADGQPIFMAAIGSTPFERGDEAEGFLIVTAAADQGLVDIHDRRPLVLSPEAAREWMRQEISGKEASEIAASGCVPANQFSWHPVSRAVGNVKNQGAELIQPV | soluble
2 | MSLNAQTLLANVAELVKTKLKPLVDDIDRKGYYPEAFMRELGAIGAVGIEAEGGNGLGLATRIAVLREIGKECGATSFSAWCQAACAWYLHQTPNQAVKDKYLADILQGKVLAGTGMSNTVKHLAGIEKHNLQAECVEGGYTVNGALPWVSNIGEDHIWANTAQIGGGYVMFITGGQREGVSLQNCPEFCALEGTHTFSLNFKDVFIPDEDIIAAPEQFAGYIQSIKAGFILLQIGIGAGVIDGSLGIIRLVNVVNAEVNSYLDDGYDSLKARLDGAWAETERLAGLAWDNTPDNLATLKLREAAAVLALAAAQSAALHSGAKGYLMRSPAQRRVGEAMFVAIVTPAIKHLCKEIAAIEAAKEGHHHHHH | not soluble
3 | MNFVQPIRDPEQIQQLKDYFKEKSLRNYILFIMGINTGLRISDILKLKVGDVKGSHISMREEKTGKQKRIQITAALKRELKWFIEEREDNEYLLQSRQGRNRPIGRSMAYKILSGAAADFGLDEIGTHTLRKTYGYHMYMQTKNIALLMEIFNHSSEKVTLRYIGVNQDAMDKAMTRFKI | not soluble
4 | MLVPGRVYLFRIPEGKEIIEFLREFAEKENIKVGIISAIGTLRNPVIGYFMEEEKKYKEISLTGTYELLSLSGNISLKDGKPFVHAHVVLGDSEGRAFGGHLVRGEVFVAEVFVQELEGETLERKPTEHGLALWLEHHHHHH | not soluble
5 | GMGNIYQITVEEKAEHQRTLSFEFSLHDDLFKLLEKVDGKMDMTPEQTQAFMVGLKLFGEVMMQQRKHPLFKEFSAPFRAFMMNLKKQ | soluble
6 | MSLNSKKETINIGCSLPLTGEGANYGRSVKEGVDLAIEEINQSEMFDLPLKVIYEDDKMDPREGVNAINKLITADNVPIIIGPFGSSITLAVAPIANKNKVVLLGASATADNIKDAGDYIFRITPPNSKQGNDVASFCFNSLNSKKAAIIYQTNDYGTTLKTAFESEYLKLGGEVLIVEGVDLGNKDFKTQILKIKSKQVDVVFFPLHVAESGNFLKQSKELGLNVKFISCDGAMVDDLLKLAGNAAEGTYYTSLALAYGMNDSLINSFNTNFKKKYNKEPDVYAAYYYEVTYILAHALKKANGNIGQIKEILYSINGENAYNGITGLTSFDTYGEVDKSFSIYVVSNNKFSLFKEGHHHHHH | soluble
7 | MGSDKIHHHHHHMQFADFWYIVALSNQLQPNKVLPRTVLGEWLAIFRGEDGQPVALRDRCLHRNSRLSSGKICNGALQCPYHGWVYDGVGNVIAVPAEGNDFKPSPQRRAKCYATKEQDGYVYVRLADTPSVDFEPFSMPHYGQTGWETVRVINRFANNVTNCAENFIDIPHTAFVHPGVFRTSRQQKLEMTVERWNGSVLVEYRNENSNLGWYSRFLNLQSAEIKHSDRFYMPNITSVEYKMARNRHLFITSQSIPETDNSTLVYTDVTYNYGIWNKLARPFVRWTAQHIIRQDVEILGIQGEAIAKYGTQFYNTPADTIHIFVESIMAAISRGEDPRLLPNQSVKVTFWV | not soluble
8 | GPPSGKTYMGWWGHMGGPKQKGITSYAVSPYAQKPLQGIFHNAVFNSFRRFKSQFLYVLIPAGIYWYWWKNGNEYNEFLYSKAGREELERVNV | soluble
9 | MSKSPDAFRTISEVAEWLGVQAHVLRFWESKFNQVKPVKRAGGRRYYRPADMQLLGGIKKLLHDDGMTIKGVQKLLREQGVAHVAEQSQD | not soluble
10 | MSLHNRFSLAQTLVTTVEAESGTRAGGLTIATANAGYSGTGYITNMTSAADKLTIPVTVPSAGNYQLVIRYNGPYGPKDQDIYVNGVFVSSLHFPETTGYTDLTAGSLTLNAGANTIGIYKNWGYTDFDKISLFTVPLHDYSTVAPNLIDANATPEAKALYNYIKAGYGTRIISGQTSDYYNTVSPNAAKKPVIRAYDFQHYTVGYSYLWNNATASHTFGWEDDGTTQAAIDWYNSTCQKGMVAFHWHWHSPSGGQAGTNTFYTNSTAFDVTKAVTQGTPEYTAVIRDIDSIATQLKRLQAAGVPVLWRPLHEAGGAWFWWGAKGPAAALALYDMVYNRIVNYHNIHNLIWQWSTPEANWYPGNSKVDMLGYDSYPGAYNYGTQKLIFDQLYTIVNGQKILAMTENGPIPDPDLCFSSDAKWAYVMSWSDLVTQQNSSAQLNLVYNHAKVLTLDEVTTATNTAQLTAEGHHHHHH | soluble
11 | MTGALNQAQKTPWRYGFLNLMRRVDAQLCDTPAGSIWQPRMEKFRLGQTPTMTFAPREIAQVSWQDGRLHLSLYSLGLWGPNGPLPLHYTELALNRSESRHDPTLVHFSNIFHHRWLTQFWQAWRSAQSAGGGLDKPEHDRFAFYIASLSGQDLRESAESPLSDHVRLAASAHLVRESRNPDGLAATLAHYFSVPFAVKEFALHWITVANDEITRLGTPAQSSVLGNGALIGQAVPDMQYKFRLIIGPLTLEDYLRFLPGGNNLPVLTELVRTFIGFEYCWEIELQLKPHAAPPAVIGGAQRLGWTAWAGKAMHDRPVTGMIFEPEHGLTH | not soluble
12 | TWILTADSPSLLGTVDVVTRYLFEQRCYVTEHHSFDDRLAQRFFIRVEFRAGDGFDEASFRAGLAERVAPFGMRTELTAPGYRSQVAIMVSKADHCLNDLLYRQRIGQLPMDVVAVISNHPDLEPLARWHGIPYHHFPLDPNDKPAQEARVWQVLEESGAELVILARYMQVLSPELCRRLDGWAINIHHSLLPGFKGAKPYHQAYQKGVKLVGATAHYINNDLDEGPIIAQGVETVDHAHYPEDLIAKGRDIECLTLARAVGYHIERRVFLNANRTVVL | not soluble
13 | MGSDKIHHHHHHMKASIEQLEPYVPEKPLATLQAELGLTELVRLSANENPYGTSPKVATAVKNWDFTQSNRYPDADAQELRQAVAQQQGIDPNSIVFSVGLDEMIVMLSRTFLATNDQVLVSAPTFSEYGLHAEIEGGQLISVPTLPNDHVNFEGLMKAITPHVKMVWLCNPNNPTGTVESLAAIEAFVQQVPPETMVLIDEAYIDFTPGAAQVTAMQLPAKYPNVVVMRTFSKAYGLANFRIGYAVFNTKYAATMQTIRLPYNVNSLAQVAALAAIDDPNFVKQTVQKNATERAKWMAFFDDQGVTYDQSGANFIFFKYPSATQLADYLVHHGYLIRTGLRPGWLRLTVGTANDNQQLQQLIREFKA | not soluble
14 | MSLCGIAGWVSFERDLSTQRAVAETMTKTMALRGPDDEGLWLDRRAALGHRRLSIIDLEGGRQPMTADEDGRTLACLVYTGEVYNFRELRLELQGLGHAFRTRSDTEVVLRAYLQWGEAMLERLNGMYAFALWDAREQRLLLVRDRMGVKPLYYYPMPDGVLFGSEPKAILAHPEAERRVTAGGLREMLDLVKTPEAAAFAGMHEVRPGQVVTIDRGGLRKRRYWQLEAREHTDDLPTTIRTVRELLDDIVERQIIADVPLCTLLSGGLDSSVVTALAARSMRRQGKGTVRSFSVDFVKHGAAFEADYLRGSPDAPFVRDLAAHAGTEHREILLESRELADPRLRAAVLGAQDLPPAYWGDMLPSLYKLFEAIRAQSTVALSGESADEVFGGYRWFHDAAAVDGDAFPWLAGSSGAFFDGQSLIAPGLLRELDMPGFRRDSYAQALAEVPRLASDSTRERRMREISHMHLTRFVQALLDRKDRMSMAVGLEVRVPFCDHRLVEYVFNAPWSMKNFDGREKSLLRAAGKDVLPESIVRRVKSPYPATQDPAYEQALRQGLARVLDDSRSPALPLLDKAAAWKLLDRPFGKTSTSPERAGLEMALGLDEWLRHHQVSLDLEGHHHHHH | not soluble
15 | MSLNGTSGSVARQLAARRIIGTSWRLFVAYLKWSGVLEVSFKGVEKLNRPGQLILANHPSLLDVVLLVGHVPEMNCIVKKDLQHNPAMSSQIKGAGYIPNEESEAMLETVKAVFDSGQSLLVFPEGTRTGWDGRVKMHRGAVSLGLRYAEVITPVCIKMNPPNFKKGQPWYRIPPKRIRYEITVGDDILPQDWLAEKPLPIAARRLNEYLQDYFTRKTIEGHHHHHH | not soluble
16 | MHKKLNPKSMKRENKKMVLRYLIESGPHSRVEIARKTGLAQSAIWRIIEELVNEGLVEEKGTATGRRRKAVTYGPTRSFITSIIYNVEVLETLVAVGFLDGAWRIIERFSTPKDFDEFKQRVTSSYENILKSHVLNKNISKVVFSLPGIVNTESKFLIHAPNLGWRNIDFRREFGNLDLEVLVENDSNLSLLAEEFFSQDVKESDVAFFLYFGEGIGGAISVNGKIVRGENFAAGEIGHVVLDVKNGKEVEEFLSISKLVERMEKFVELQGESLDEKFRYIKRLWFSGEKNVKETMEEFLQHVAVVLKNIIYFLNPGVIVLGGVVNDLWDTFGSFIKRELEKITDREIANVLIRDTIFKEISPSLVGGNVLAIEEFLRQIT | not soluble
17 | MGSDKIHHHHHHMSLCLFCDQPFTGDLDMRRLLLPGKSKTSCLCPSCRQLFAQIGTAFCPQCGRQQDSGEICQDCQKWRRIYQGNFLHNQAVYCYNQAFHDLMVRYKRYGDYLLCQVLQELAAPAVQKLAADYYVPVPTSPEHRKKRGYDTVWEIFTPLLPLTPLLAKKAGAGAQGEKDKKARMQAKQNFFLNPEFRGTITGKIILLDDIYTTGRTLYHARDAIEKAFPKCQVESFSISR | not soluble
18 | MAGFEIQRVESKFFDLDDIIAKSDSTSCTFEIGDLNPDFFQEMLGVSKPTQNADGYGVDAPYWLLESVRSSFSIQLPKAYSVNMQNVLNADSKKLNLSGLQQHFYGNGMQLCRLMKGENPDGALSLARCLVSTLTQRLGEIVSTATHLQSKGEKFDSLETKVFLEGKRCKEDIDTWLRQDNKCSSKKRKRLSL | not soluble
19 | MGSDKIHHHHHHMILTVTASPYLLSTNELDGTIEIGEANKIRQVSTVAGGFGTGVAATLFYGGNETFAVFPAPEISHYMRLVTFAGLPHEIIPVAGPIPMHLTMRDAEGNETKFKDSPMPLDVSQLAILRDLVVRRAEDAAWVLLGGNLPSIAPAAWFVDVVRSLRLYHPHVKVAIAATGAALRAVIRQLAATSPDALIVAAEEIEIATGLEPKTLRGPWVEGDLSPTVAAARALIDSGVTEVLVTNKRTESLYVSESESLLASYDSTPGKQGVNWRESFTAGFLAASNDGKSTEDSVINAVAYANAEGSEWDNYIPTPDKLRAEHVVIKSL | not soluble
20 | MGSDKIHHHHHHMTKHQNFIETKEYKRFAEFCDACIKYQYIGICYGQPGVGKTLSSRYYTNWNTIEKQVNHRGWEDLASKTTDDILSVNKIFYTAPAEKQTRLSNDLYSISASIDLGQKLHIVNKYGHDHSKHYSDMFKYIDLIIVDEIDRLKVQHLEQLRAIYDEHNLAMIFIGMPGIEKKLSRYPQLYSRIGFAHEFDNLSKDETHHILEYKWQDLGFDLKLEDFTDYEAITTIIKITKGNFRLIHRLFAQIDRIMDINGLDKISTEVVETARDSLVIGIR | not soluble
21 | MASAVQAQHNVSDVSRMNVLFLMADDMRPELGCYGVEAVKTPNMDRLASSGVLFQNAYCNVPVSGASRASLLTGVYPHYPDRFVNFSAYASKDCPEAIPLSGWFTKNGYHTVSDGKVFHHMSDHAASWSEPPYRNHPDGYDVYWAEYNKWELWMNSESGKTINPKTMRGPFCESADVPDTAYDDGKLAERAIRDLRRMKEMNKPFFLACGFWKPHLPFNAPKKYWDLYKREEIPLASNRFRPEGLPEQVRNSSEIYAYARVTDTGDADFQREVKHGYYACLSYVDAQIGKVLDALDELGLAENTIVVLLGDHGWNLGEHDFVGKHNLMDRSTHVPLIIRVPGMKKGKTRSMVEFVDLYPTLCELCQIPQPAEQLDGQSFAKVFSNLKAKTKDEVYIQWEGGDNAVDQRFSYAEWMKGDVKKASMLFDHRIDKEENKNRVNEKKYKSKVESLSSFIKVKKSSLKKLEHHHHHH | not soluble
